Measurements: PMC8217507 (Scientific Reports, 2021)

B1: HuMAb 3E1 (antibody, V domains shown)
VH: EVQLLESGGGLVQPGGSLRLSCAASGFTFSRFAMTWVRQAPGKGLEWVSAISGSGGSTFYADSVKGRFTISRDNSKNTLYLQMNSLRAEDTAVYYCVSLGDAWLLYWTPWGQGSLVTVSS
VL: DVVMTQSPLSLPVTLGQPASISCRSSQSLVHGDGNTYLNWFQQRPGQSPRRLIYNVSNRDPGVPDRFSGSGSGTDFTLKISWVEAEDVGVYYCMQATHLPPTFGGGTKVEI
B2: HuMAb 3G9 (antibody, V domains shown)
VH: EVQLLDSGGGLVQPGGSLRLSCAASGFTFNDYAMTWVRQAPGKGLEWVSTISGSGDGTYYQESLKGRFTISRDNSKNTLYLLMSSLRVDDTAVYYCAKLFGVGDSDGYWGQGTLVTVSS
VL: QAVVTQEPSLTVSPGGTVTLTCGSSTGAVTSDHYFYWFQQKPGQAPRTLIYQTTNKHPWTPARFSGSLLGGKAALTLSGAQPEDEAEYYCLLSYGGGRPVFGGGTKLTVL
notes: also called 3G9-original; 3G9-Original
B3: HuMAb 1C3 (antibody, V domains shown)
VH: EVQLVESGGGLVQPGGSLRLSCAASGFTFSDHYIDWVRQAPGKGLEWVGRTSNRANSYTSEYAASVKGRFTISRDDSKNSVYLQMNSLKTEDTAVYFCARDSGWYDFWGQGTLVTVSS
VL: ALTQPASVSGSPGQSITISCTGPSRDLGANNYVSWYQQHPGKAPKLLIYDINNRPSGVPDRFSGSRSGNTASLTISGLQADDEADYYCSSYTRSRTRVFGGGTKLTVL
B4: HuMAb 1E5 (antibody, V domains shown)
VH: QVQLVESGGGVVQPGKSLRVSCAASGFIFSSYGMHWVRQAPGKGLEWVAVISYDGRYKFYADSVKGRFTISRDDSRSTLYLQMNSLRSDDTAVYYCARGRPYIGGDYEYDYFYGMDVWGQGTTVIVSS
VL: IVMTQTPLSSPVTLGQPASISCRSSQSLVHSDGNTYLNWLQQRPGQPPRLLIYNISNRFSGVPDRFSGSGAGTDFTLKINRVEAEDVGVYYCMQATHFPYSFGQGTKLEIK

The binders below were run against T1, DENV2 (strain 16681) prM-E, wild type (Dengue virus type 2, strain 16681, UniProt P29990) (assay: flow cytometry on cells).
T1 construct: also called wild-type prM-E; DENV-2 prM-E; source: HEK-293T, transfected, in fixed cells

Q: Does B1 bind?
A: binds

Q: Does B2 bind?
A: binds

Q: Does B3 bind?
A: binds

Q: Does B4 bind?
A: binds

What follows are binders tested against E protein of DENV-2 Indonesian isolate (cosmopolitan genotype, Surabaya) (Dengue virus type 2, cosmopolitan …, UniProt P14340, strain) (assay: cell-based or functional assay).

Q: B1 was tested. Which “NT50, neutralization of DENV-2 (Indonesian isolate), Vero cells” value (from here on “NT50, neutralization”) did it give?
A: 0.05 µg/mL

Q: With B2 as the binder, how does the “NT50, neutralization” value read?
A: 0.02 µg/mL

Q: Which “NT50, neutralization” value does the source give for B3 here?
A: 0.12 µg/mL

Q: B4 was tested. Which “NT50, neutralization” value did it give?
A: 0.69 µg/mL
